Ends that are not written are not given here.
Key:
Experiment in all cases: peptide ELISA
[1] = molecular target: T1, FX activation peptide 12-mer SVAQATSSSGEA (human)
T1 peptide: SVAQATSSSGEA-biotin
Experimental: (§1) The peptides were C-terminally conjugated to biotin and 50 μL of 1 μg/mL peptide solution was used for immobilization in discrete wells of the microtiter plate which was pre-coated with 1 μg/mL streptavidin. Each well was washed with washing buffer (10 mM Tris, 150 mM NaCl, 2.5 mM CaCl₂, 0.05% Tween 20, pH 8.60) followed by addition of 50 μL of 2 μg/mL FLAG-tagged anti-FX Nanobody® or IgG antibody to be tested. After 1 hour non-bound Nanobody®/antibody was washed off using washing buffer.
(§2) Bound anti-FX activation peptide ligand was detected by first binding a HRP-labelled secondary antibody (for FLAG-tagged Nanobodies: Anti-FLAG mAb M2-Peroxidase (HRP) (Sigma Aldrich, US), for antibody: Fcγ Fragment Specific Peroxidase AffiniPure F(ab′)₂ Fragment Goat Anti-Human IgG (Jackson ImmunoResearch Laboratories, Inc., US), or Peroxidase AffiniPure Goat Anti-Mouse IgG (Jackson ImmunoResearch Laboratories, Inc., US)) for 1 hour, and then adding 100 μL TMB-1 ELISA substrate (Kem-En-Tec Diagnostics, Denmark).

[2] = molecular target: T2, FX activation peptide 12-mer VAQATSSSGEAP (human)
T2 peptide: VAQATSSSGEAP-biotin
Experimental: as §1, §2

[3] = molecular target: T3, FX activation peptide 12-mer AQATSSSGEAPD (human)
T3 peptide: AQATSSSGEAPD-biotin
Experimental: as §1, §2

[4] = molecular target: T4, FX activation peptide 12-mer QATSSSGEAPDS (human)
T4 peptide: QATSSSGEAPDS-biotin
Experimental: as §1, §2

[5] = molecular target: T5, FX activation peptide 12-mer ATSSSGEAPDSI (human)
T5 peptide: ATSSSGEAPDSI-biotin
Experimental: as §1, §2

[6] = molecular target: T6, FX activation peptide 12-mer TSSSGEAPDSIT (human)
T6 peptide: TSSSGEAPDSIT-biotin
Experimental: as §1, §2

[7] = molecular target: T7, FX activation peptide 12-mer SSSGEAPDSITW (human)
T7 peptide: SSSGEAPDSITW-biotin
Experimental: as §1, §2

[8] = molecular target: T8, FX activation peptide 12-mer SSGEAPDSITWK (human)
T8 peptide: SSGEAPDSITWK-biotin
Experimental: as §1, §2

[9] = molecular target: T9, FX activation peptide 12-mer SGEAPDSITWKP (human)
T9 peptide: SGEAPDSITWKP-biotin
Experimental: as §1, §2

[10] = molecular target: T10, FX activation peptide 12-mer GEAPDSITWKPY (human)
T10 peptide: GEAPDSITWKPY-biotin
Experimental: as §1, §2

[11] = molecular target: T11, FX activation peptide 12-mer PDSITWKPYDAA (human)
T11 peptide: PDSITWKPYDAA-biotin
Experimental: as §1, §2

[12] = molecular target: T12, FX activation peptide 12-mer SITWKPYDAADL (human)
T12 peptide: SITWKPYDAADL-biotin
Experimental: as §1, §2

[13] = molecular target: T13, FX activation peptide 12-mer ITWKPYDAADLD (human)
T13 peptide: ITWKPYDAADLD-biotin
Experimental: as §1, §2

[14] = molecular target: T14, FX activation peptide 12-mer TWKPYDAADLDP (human)
T14 peptide: TWKPYDAADLDP-biotin
Experimental: as §1, §2

[15] = molecular target: T15, FX activation peptide 12-mer WKPYDAADLDPT (human)
T15 peptide: WKPYDAADLDPT-biotin
Experimental: as §1, §2

[16] = molecular target: T16, FX activation peptide 12-mer KPYDAADLDPTE (human)
T16 peptide: KPYDAADLDPTE-biotin
Experimental: as §1, §2

[17] = molecular target: T17, FX activation peptide 12-mer PYDAADLDPTEN (human)
T17 peptide: PYDAADLDPTEN-biotin
Experimental: as §1, §2

[18] = molecular target: T18, FX activation peptide 12-mer YDAADLDPTENP (human)
T18 peptide: YDAADLDPTENP-biotin
Experimental: as §1, §2

[19] = molecular target: T19, FX activation peptide 12-mer DAADLDPTENPF (human)
T19 peptide: DAADLDPTENPF-biotin
Experimental: as §1, §2

[20] = molecular target: T20, FX activation peptide 12-mer AADLDPTENPFD (human)
T20 peptide: AADLDPTENPFD-biotin
Experimental: as §1, §2

[21] = molecular target: T21, FX activation peptide 12-mer ADLDPTENPFDL (human)
T21 peptide: ADLDPTENPFDL-biotin
Experimental: as §1, §2

[22] = molecular target: T22, FX activation peptide 12-mer DLDPTENPFDLL (human)
T22 peptide: DLDPTENPFDLL-biotin
Experimental: as §1, §2

[23] = molecular target: T23, FX activation peptide 12-mer TENPFDLLDFNQ (human)
T23 peptide: TENPFDLLDFNQ-biotin
Experimental: as §1, §2

[24] = molecular target: T24, FX activation peptide 12-mer NPFDLLDFNQTQ (human)
T24 peptide: NPFDLLDFNQTQ-biotin
Experimental: as §1, §2

[25] = molecular target: T25, FX activation peptide 12-mer FDLLDFNQTQPE (human)
T25 peptide: FDLLDFNQTQPE-biotin
Experimental: as §1, §2

[26] = molecular target: T26, FX activation peptide 12-mer DLLDFNQTQPER (human)
T26 peptide: DLLDFNQTQPER-biotin
Experimental: as §1, §2

[27] = molecular target: T27, FX activation peptide 12-mer LLDFNQTQPERG (human)
T27 peptide: LLDFNQTQPERG-biotin
Experimental: as §1, §2

[28] = molecular target: T28, FX activation peptide 12-mer LDFNQTQPERGD (human)
T28 peptide: LDFNQTQPERGD-biotin
Experimental: as §1, §2

[29] = molecular target: T29, FX activation peptide 12-mer FNQTQPERGDNN (human)
T29 peptide: FNQTQPERGDNN-biotin
Experimental: as §1, §2

[30] = molecular target: T30, FX activation peptide 12-mer NQTQPERGDNNL (human)
T30 peptide: NQTQPERGDNNL-biotin
Experimental: as §1, §2

[31] = molecular target: T31, FX activation peptide 12-mer QTQPERGDNNLT (human)
T31 peptide: QTQPERGDNNLT-biotin
Experimental: as §1, §2

[32] = molecular target: T32, FX activation peptide 12-mer TQPERGDNNLTR (human)
T32 peptide: TQPERGDNNLTR-biotin
Experimental: as §1, §2

B1: Nb 501A02 (VHH)
VHH: EVQLVESGGGLVQPGGSLRLSCAASGFTFSNYEMSWVRQAPGKGLEWVSDIGSGGGVSTYYADSVKGRFTISRDNAKNTLYLQMNSLKPEDTAMYYCARGWTYGSDGMDYWGKGTLVTVSS
notes: monovalent control Nanobody; also called control Nanobody; not shown: C-terminal FLAG3 and HIS6 tag
ELISA signal relative to background [1]: 0.74
binding result [1]: no binding (tested: 2 µg/mL)
ELISA signal relative to background [2]: 0.88
binding result [2]: no binding (tested: 2 µg/mL)
ELISA signal relative to background [3]: 0.79
binding result [3]: no binding (tested: 2 µg/mL)
ELISA signal relative to background [4]: 0.82
binding result [4]: no binding (tested: 2 µg/mL)
ELISA signal relative to background [5]: 0.82
binding result [5]: no binding (tested: 2 µg/mL)
ELISA signal relative to background [6]: 0.76
binding result [6]: no binding (tested: 2 µg/mL)
ELISA signal relative to background [7]: 0.82
binding result [7]: no binding (tested: 2 µg/mL)
ELISA signal relative to background [8]: 0.71
binding result [8]: no binding (tested: 2 µg/mL)
ELISA signal relative to background [9]: 0.76
binding result [9]: no binding (tested: 2 µg/mL)
ELISA signal relative to background [10]: 0.94
binding result [10]: no binding (tested: 2 µg/mL)
ELISA signal relative to background [11]: 0.79
binding result [11]: no binding (tested: 2 µg/mL)
ELISA signal relative to background [12]: 0.71
binding result [12]: no binding (tested: 2 µg/mL)
ELISA signal relative to background [13]: 0.74
binding result [13]: no binding (tested: 2 µg/mL)
ELISA signal relative to background [14]: 0.74
binding result [14]: no binding (tested: 2 µg/mL)
ELISA signal relative to background [15]: 0.74
binding result [15]: no binding (tested: 2 µg/mL)
ELISA signal relative to background [16]: 0.82
binding result [16]: no binding (tested: 2 µg/mL)
ELISA signal relative to background [17]: 0.79
binding result [17]: no binding (tested: 2 µg/mL)
ELISA signal relative to background [18]: 0.71
binding result [18]: no binding (tested: 2 µg/mL)
ELISA signal relative to background [19]: 0.88
binding result [19]: no binding (tested: 2 µg/mL)
ELISA signal relative to background [20]: 0.79
binding result [20]: no binding (tested: 2 µg/mL)
ELISA signal relative to background [21]: 0.71
binding result [21]: no binding (tested: 2 µg/mL)
ELISA signal relative to background [22]: 0.79
binding result [22]: no binding (tested: 2 µg/mL)
ELISA signal relative to background [23]: 1.09
binding result [23]: no binding (tested: 2 µg/mL)
ELISA signal relative to background [24]: 0.94
binding result [24]: no binding (tested: 2 µg/mL)
ELISA signal relative to background [25]: 0.85
binding result [25]: no binding (tested: 2 µg/mL)
ELISA signal relative to background [26]: 0.76
binding result [26]: no binding (tested: 2 µg/mL)
ELISA signal relative to background [27]: 0.79
binding result [27]: no binding (tested: 2 µg/mL)
ELISA signal relative to background [28]: 0.74
binding result [28]: no binding (tested: 2 µg/mL)
ELISA signal relative to background [29]: 0.71
binding result [29]: no binding (tested: 2 µg/mL)
ELISA signal relative to background [30]: 0.71
binding result [30]: no binding (tested: 2 µg/mL)
ELISA signal relative to background [31]: 0.76
binding result [31]: no binding (tested: 2 µg/mL)
ELISA signal relative to background [32]: 0.85
binding result [32]: no binding (tested: 2 µg/mL)
